Assay results from patent US12448453 (NANJING IASO BIOTECHNOLOGY, dated 2025).
Substitutions are numbered along the chain they refer to. Numbers in names are those of the source. One block for each binder: values may come before it.

What was measured:
human CD22 [1] = molecular target: T1, human CD22 (human, UniProt P20273 20-687, limits assumed); assay: ForteBio, antibody in the form of IgG, avid
T1 construct: CD22-llama-Fc and CD22-his are named only for the yeast library sorting; also called CD22 antigen

human CD22 [2] = molecular target: T1, human CD22; assay: ForteBio, antibody in the form of Fab, monovalent
[3] = molecular target: T2, CD22 antigen on the surface of target cells (Raji, REH, NALM6, JVM2, 3E09, 3D11) (human, UniProt P20273 20-847); assay: cell-based or functional assay
[4] = molecular target: T2, CD22 antigen on the surface of target …; assay: cell-based or functional assay; remark: listed apart in the source
[5] = molecular target: T3, CD22-FITC protein (Acro Biosystem, Cat. No. SI2-HF2H6) (UniProt P20273 20-687, FITC label); assay: flow cytometry of CAR-T cells stained with FITC-CD22 protein and APC anti-CD8, quadrant gate
T3 construct: Bought reagent; also called FITC-CD22 protein; CD22 protein
Protocol: Cell samples were stained with APC mouse anti-human CD8, PE anti-human EGFR and FITC-CD22 protein.
When the cells were cultured to the 6th or 7th day, the expression of CAR molecules, tEGFR molecules and CD8 on the cell surface was detected by flow cytometry. […] On day 6 of cell culture, approximately 5 ×10^5 cells were removed from each sample individually, and the medium was removed by centrifugation at 500 g. […] The mixtures were mixed well and incubated at 4° C. in the dark for 20 min. After completion of incubation, the cells were washed twice with PBS+1% HSA solution again, re-suspended in 200 μL of PBS+1% HSA solution, and then loaded onto the instrument for testing.

[6] = molecular target: T2, CD22 antigen on the surface of target …; assay: cell-based or functional assay; remark: listed apart in the source

B1: clone 80 anti-CD22 antibody in the form of IgG (antibody, V domains shown)
VH: QVQLQESGPGLVKPSGTLSLTCAVSGGSISSSNWWSWVRQPPGKGLEWIGEIYHSGSTNYNPSLKSRVTISVDKSKNQFSLKLSSVTAADTAVYYCARLPGYESAFDIWGQGTMVTVSS
VL: EIVLTQSPGTLSLSPGERATLSCRASQSVSSSYLAWYQQKPGQAPRLLIYGASSRATGIPDRFSGSGSGTDFTLTISRLEPEDFAVYYCQQAGLFPYTFGGGTKVEIK
notes: Fully human; tested 'in the form of IgG'
Kd (human CD22 [1]): 0.82 nM
Response (human CD22 [1]): 0.93 nm
koff (human CD22 [1]): 0.0002 s⁻¹
kon (human CD22 [1]): 240000 M⁻¹ s⁻¹

B3: clone 28 CAR (CD22-targeted chimeric antigen receptor, clone 28 scFv with CD8α hinge and transmembrane region, 4-1BB and CD3z), on reporter cells or CAR-T cells (other)
chain: QVQLQESGPGLVKPSETLSLTCTVSGGSISSYYWSWIRQPAGKGLEWIGRIYTSGSTNYNPSLKSRVTMSVDTSKNQFSLKLSSVTAADTAVYYCARDLYRDGMDVWGQGTTVTVSSGGGGSGGGGSGGGGSDIQMTQSPSTLSASVGDRVTITCRASQSISSWLAWYQQKPGKAPKLLISDASSLESGVPSRFSGSGSGTEFTLTISSLQPDDFATYYCQQANTYSPTFGGGTKVEIKFVPVFLPAKPTTTPAPRPPTPAPTIASQPLSLRPEACRPAAGGAVHTRGLDFACDIYIWAPLAGTCGVLLLSLVITLYCNHRNKRGRKKLLYIFKQPFMRPVQTTQEEDGCSCRFPEEEEGGCELRVKFSRSADAPAYQQGQNQLYNELNLGRREEYDVLDKRRGRDPEMGGKPRRKNPQEGLYNELQKDKMAEAYSEIGMKGERRRGKGHDGLYQGLSTATKDTYDALHMQALPPRGSGEGRGSLLTCGDVEENPG
notes: Chimeric antigen receptor on the cell surface; The entry ends with GSG and the T2A remnant; also called clone28-bbz
positive rate of CD107a in the CD8+/CAR+ cell population, target cell 3D11 (CD22 knockout/knockdown Raji) [3]: 16.9%
positive rate of CD107a in the CD8+/CAR+ cell population, target cell JVM2 [3]: 43.5%
positive rate of CD107a in the CD8+/CAR+ cell population, target cell NALM6 [3]: 73.5%
positive rate of CD107a in the CD8+/CAR+ cell population, target cell REH [3]: 70.4%
positive rate of CD107a in the CD8+/CAR+ cell population, target cell raji [3]: 54.8%
in vitro cell killing efficiency, target cells NALM6-ffLuc, 17 h, E:T 0.5:1 [4]: -26.8%
in vitro cell killing efficiency, target cells NALM6-ffLuc, 17 h, E:T 1:1 [4]: 13.8%
in vitro cell killing efficiency, target cells NALM6-ffLuc, 17 h, E:T 2:1 [4]: 76.1%
percent of cells in Q1 (FITC-CD22 positive, APC-CD8 negative) [5]: 23.3%
percent of cells in Q2 (FITC-CD22 positive, APC-CD8 positive) [5]: 12.7%
in vitro cell killing efficiency, target cells REH-ffLuc, 17 h, E:T 0.5:1 [6]: -50.1%
in vitro cell killing efficiency, target cells REH-ffLuc, 17 h, E:T 1:1 [6]: -23.9%
in vitro cell killing efficiency, target cells REH-ffLuc, 17 h, E:T 2:1 [6]: 63.8%

B6: clone 17 anti-CD22 antibody in the form of Fab (Fab, V domains shown)
VH: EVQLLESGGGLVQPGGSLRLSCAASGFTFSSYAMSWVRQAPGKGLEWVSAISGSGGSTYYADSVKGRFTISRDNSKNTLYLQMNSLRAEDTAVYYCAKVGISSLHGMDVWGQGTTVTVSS
VL: DIQMTQSPSTLSASVGDRVTITCRASQSISSWLAWYQQKPGKAPKLLIYKASSLESGVPSRFSGSGSGTEFTLTISSLQPDDFATYYCQQYERFPWTFGGGTKVEIK
notes: Tested 'in the form of Fab'
Kd (human CD22 [2]): 8.1 nM
Response (human CD22 [2]): 0.19 nm
koff (human CD22 [2]): 0.0017 s⁻¹
kon (human CD22 [2]): 210000 M⁻¹ s⁻¹

B7: clone 28 anti-CD22 antibody in the form of IgG (antibody, V domains shown)
VH: QVQLQESGPGLVKPSETLSLTCTVSGGSISSYYWSWIRQPAGKGLEWIGRIYTSGSTNYNPSLKSRVTMSVDTSKNQFSLKLSSVTAADTAVYYCARDLYRDGMDVWGQGTTVTVSS
VL: B6 VL with Y49S, K50D, Y91A, E92N, R93T, F94Y, P95S, W96P
notes: as for B1
Kd (human CD22 [1]): 0.97 nM
Response (human CD22 [1]): 0.81 nm
koff (human CD22 [1]): 0.0002 s⁻¹
kon (human CD22 [1]): 210000 M⁻¹ s⁻¹

More lines, main results first:

Kd (human CD22 [2]): 13 nM
Response (human CD22 [2]): 0.24 nm
koff (human CD22 [2]): 0.0046 s⁻¹
kon (human CD22 [2]): 360000 M⁻¹ s⁻¹
B2: clone 80 anti-CD22 antibody in the form of Fab (Fab, V domains shown)
VH: B1 VH
VL: B1 VL
notes: Tested 'in the form of Fab'

positive rate of CD107a in the CD8+/CAR+ cell population, target cell 3D11 (CD22 knockout/knockdown Raji) [3]: 18.9%
positive rate of CD107a in the CD8+/CAR+ cell population, target cell JVM2 [3]: 32.8%
positive rate of CD107a in the CD8+/CAR+ cell population, target cell NALM6 [3]: 59.7%
positive rate of CD107a in the CD8+/CAR+ cell population, target cell REH [3]: 62.3%
positive rate of CD107a in the CD8+/CAR+ cell population, target cell raji [3]: 39.7%
percent of cells in Q1 (FITC-CD22 positive, APC-CD8 negative) [5]: 27.5%
percent of cells in Q2 (FITC-CD22 positive, APC-CD8 positive) [5]: 17.6%
B4: clone 80 CAR (CD22-targeted chimeric antigen receptor, clone 80 scFv with CD8α hinge and transmembrane region, 4-1BB and CD3z), on reporter cells or CAR-T cells (other)
chain: QVQLQESGPGLVKPSGTLSLTCAVSGGSISSSNWWSWVRQPPGKGLEWIGEIYHSGSTNYNPSLKSRVTISVDKSKNQFSLKLSSVTAADTAVYYCARLPGYESAFDIWGQGTMVTVSSGGGGSGGGGSGGGGSEIVLTQSPGTLSLSPGERATLSCRASQSVSSSYLAWYQQKPGQAPRLLIYGASSRATGIPDRFSGSGSGTDFTLTISRLEPEDFAVYYCQQAGLFPYTFGGGTKVEIKFVPVFLPAKPTTTPAPRPPTPAPTIASQPLSLRPEACRPAAGGAVHTRGLDFACDIYIWAPLAGTCGVLLLSLVITLYCNHRNKRGRKKLLYIFKQPFMRPVQTTQEEDGCSCRFPEEEEGGCELRVKFSRSADAPAYQQGQNQLYNELNLGRREEYDVLDKRRGRDPEMGGKPRRKNPQEGLYNELQKDKMAEAYSEIGMKGERRRGKGHDGLYQGLSTATKDTYDALHMQALPPRGSGEGRGSLLTCGDVEENPG
notes: Chimeric antigen receptor on the cell surface; also called clone80-bbz
in vitro cell killing efficiency, target cells NALM6-ffLuc, 17 h, E:T 0.5:1 [4]: 15.3%
in vitro cell killing efficiency, target cells NALM6-ffLuc, 17 h, E:T 1:1 [4]: 58.5%
in vitro cell killing efficiency, target cells NALM6-ffLuc, 17 h, E:T 2:1 [4]: 90.5%
in vitro cell killing efficiency, target cells REH-ffLuc, 17 h, E:T 0.5:1 [6]: -18.2%
in vitro cell killing efficiency, target cells REH-ffLuc, 17 h, E:T 1:1 [6]: 40.2%
in vitro cell killing efficiency, target cells REH-ffLuc, 17 h, E:T 2:1 [6]: 89%

Kd (human CD22 [1]): 1.6 nM
Response (human CD22 [1]): 0.62 nm
koff (human CD22 [1]): 0.0002 s⁻¹
kon (human CD22 [1]): 130000 M⁻¹ s⁻¹
B5: clone 17 anti-CD22 antibody in the form of IgG (antibody, V domains shown)
VH: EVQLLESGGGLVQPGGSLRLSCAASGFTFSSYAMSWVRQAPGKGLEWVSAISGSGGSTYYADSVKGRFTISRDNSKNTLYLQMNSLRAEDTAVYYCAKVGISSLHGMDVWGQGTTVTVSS
VL: B6 VL
notes: as for B1

Kd (human CD22 [2]): 0.94 nM
Response (human CD22 [2]): 0.25 nm
koff (human CD22 [2]): 0.00027 s⁻¹
kon (human CD22 [2]): 280000 M⁻¹ s⁻¹
B8: clone 28 anti-CD22 antibody in the form of Fab (Fab, V domains shown)
VH: B7 VH
VL: B6 VL with Y49S, K50D, Y91A, E92N, R93T, F94Y, P95S, W96P
notes: Tested 'in the form of Fab'
